T1: human FcγRIIa type H extracellular domain with C-terminal His tag (human, UniProt P12318 34-217)
T1 construct: extracellular domain; also called FcgRIIaH; FcγRIIa H
T1 sequence (looked up): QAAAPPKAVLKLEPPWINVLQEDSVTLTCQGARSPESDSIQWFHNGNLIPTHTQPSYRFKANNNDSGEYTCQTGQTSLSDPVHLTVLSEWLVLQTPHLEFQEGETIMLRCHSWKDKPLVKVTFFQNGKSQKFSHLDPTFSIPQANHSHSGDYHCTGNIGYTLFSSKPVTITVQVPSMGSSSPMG

T2: human FcγRIIb extracellular domain with C-terminal His tag (human, UniProt P31994 43-217)
T2 construct: extracellular domain; For crystals it was expressed with kifunensine and trimmed with Endo F1; also called FcgRIIb; FcγRIIb extracellular region
T2 sequence (looked up): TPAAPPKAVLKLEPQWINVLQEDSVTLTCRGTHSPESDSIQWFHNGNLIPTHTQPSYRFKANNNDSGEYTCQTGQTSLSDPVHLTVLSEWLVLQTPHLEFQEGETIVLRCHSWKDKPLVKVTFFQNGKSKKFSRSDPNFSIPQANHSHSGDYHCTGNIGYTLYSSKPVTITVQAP


Columns and labels:
Assay in all cases: SPR; IL6R-BF648/IL6R-L=100
[1] = biological target: T3, human FcγRIa extracellular domain with C-terminal His tag (human, UniProt P12314 16-292)
T3 construct: Whole entry named; also called FcgRIa; FcgIa
T3 sequence (P12314 16-292): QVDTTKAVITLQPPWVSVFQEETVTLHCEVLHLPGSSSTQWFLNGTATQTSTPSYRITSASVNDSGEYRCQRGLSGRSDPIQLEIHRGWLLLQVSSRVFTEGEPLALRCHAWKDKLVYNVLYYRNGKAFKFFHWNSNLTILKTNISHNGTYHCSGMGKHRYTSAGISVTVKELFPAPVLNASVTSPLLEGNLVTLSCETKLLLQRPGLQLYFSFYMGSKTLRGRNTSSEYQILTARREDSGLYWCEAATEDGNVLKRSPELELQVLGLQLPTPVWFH
Procedure: (§1) IL6R-L was utilized as the common antibody L chain for all of the antibodies, the antibodies were expressed and purified according to the method of Reference Example 1, and binding to each of the FcγRs (FcγRIa, FcγRIIa type H, FcγRIIa type R, FcγRIIb, and FcγRIIIa type V) was comprehensively evaluated by the method of Reference Example 2.
(§2) Relative binding activities were calculated for the results of analyzing interactions with the respective FcγRs according to the following method.

[2] = biological target: T1, human FcγRIIa type H extracellular …
Procedure: as §1, §2

[3] = biological target: T2, human FcγRIIb extracellular domain with …
Procedure: as §1, §2

relative binding activity [1] | relative binding activity [2] | relative binding activity [3] | Binder
57 | 359 | 186 | IL6R-BP201/IL6R-L (antibody, human IgG1, kappa, name in EU numbering) heavy: QVQLQESGPGLVKPSETLSLTCAVSGHSISHDHAWSWVRQPPGEGLEWIGFISYSGITNYNPSLQGRVTISRDNSKNTLYLQMNSLRAEDTAVYYCARSLARTTAMDYWGEGTLVTVSSASTKGPSVFPLAPSSKSTSGGTAALGCLVKDYFPEPVTVSWNSGALTSGVHTFPAVLQSSGLYSLSSVVTVPSSSLGTQTYICNVNHKPSNTKVDKKVEPKSCDKTHTCPPCPAPDLLGDDSVFLFPPKPKDTLMISRTPEVTCVVVDVSHEDGEVKFNWYVDGVEVHNAKTKPREEQYNSTYRVVSVLTVLHQDWLNGKEYKCKVSNKALPRPIEKTISKAKGQPREPQVYTLPPSRDELTKNQVSLTCLVKGFYPSDIAVEWESNGQPENNYKTTPPVLDSDGSFFLYSKLTVDKSRWQQGNVFSCSVMHEALHNHYTQESLSLSP light: not shown
113 | 154 | 173 | IL6R-BP193/IL6R-L (antibody, human IgG1, kappa, name in EU numbering) heavy: QVQLQESGPGLVKPSETLSLTCAVSGHSISHDHAWSWVRQPPGEGLEWIGFISYSGITNYNPSLQGRVTISRDNSKNTLYLQMNSLRAEDTAVYYCARSLARTTAMDYWGEGTLVTVSSASTKGPSVFPLAPSSKSTSGGTAALGCLVKDYFPEPVTVSWNSGALTSGVHTFPAVLQSSGLYSLSSVVTVPSSSLGTQTYICNVNHKPSNTKVDKKVEPKSCDKTHTCPPCPAPDLLGGDSVFLFPPKPKDTLMISRTPEVTCVVVDVSDEDGEVKFNWYVDGVEVHNAKTKPREEQYNSTYRVVSVLTVLHQDWLNGKEYKCKVSNKALPKPIEKTISKAKGQPREPQVYTLPPSRDELTKNQVSLTCLVKGFYPSDIAVEWESNGQPENNYKTTPPVLDSDGSFFLYSKLTVDKSRWQQGNVFSCSVMHEALHNHYTQESLSLSP light: not shown
95 | 139 | 173 | IL6R-BP182/IL6R-L (antibody, human IgG1, kappa, name in EU numbering) heavy: QVQLQESGPGLVKPSETLSLTCAVSGHSISHDHAWSWVRQPPGEGLEWIGFISYSGITNYNPSLQGRVTISRDNSKNTLYLQMNSLRAEDTAVYYCARSLARTTAMDYWGEGTLVTVSSASTKGPSVFPLAPSSKSTSGGTAALGCLVKDYFPEPVTVSWNSGALTSGVHTFPAVLQSSGLYSLSSVVTVPSSSLGTQTYICNVNHKPSNTKVDKKVEPKSCDKTHTCPPCPAPDLLGGDSVFLFPPKPKDTLMISRTPEVTCVVVDVSHEDGEVKFNWYVDGVEVHNAKTKPREEQDNSTYRVVSVLTVLHQDWLNGKEYKCKVSNKALPKPIEKTISKAKGQPREPQVYTLPPSRDELTKNQVSLTCLVKGFYPSDIAVEWESNGQPENNYKTTPPVLDSDGSFFLYSKLTVDKSRWQQGNVFSCSVMHEALHNHYTQESLSLSP light: not shown
74 | – | 179 | IL6R-BP188/IL6R-L (antibody, human IgG1, kappa, name in EU numbering) heavy: QVQLQESGPGLVKPSETLSLTCAVSGHSISHDHAWSWVRQPPGEGLEWIGFISYSGITNYNPSLQGRVTISRDNSKNTLYLQMNSLRAEDTAVYYCARSLARTTAMDYWGEGTLVTVSSASTKGPSVFPLAPSSKSTSGGTAALGCLVKDYFPEPVTVSWNSGALTSGVHTFPAVLQSSGLYSLSSVVTVPSSSLGTQTYICNVNHKPSNTKVDKKVEPKSCDKTHTCPPCPAPDLLGDDSVFLFPPKPKDTLMISRTPEVTCVVVDVSDEDGEVKFNWYVDGVEVHNAKTKPREEQYNSTYRVVSVLTVLHQDWLNGKEYKCKVSNKALPKPIEKTISKAKGQPREPQVYTLPPSRDELTKNQVSLTCLVKGFYPSDIAVEWESNGQPENNYKTTPPVLDSDGSFFLYSKLTVDKSRWQQGNVFSCSVMHEALHNHYTQESLSLSP light: not shown
102 | 128 | 147 | IL6R-BP176/IL6R-L (antibody, human IgG1, kappa, name in EU numbering) heavy: QVQLQESGPGLVKPSETLSLTCAVSGHSISHDHAWSWVRQPPGEGLEWIGFISYSGITNYNPSLQGRVTISRDNSKNTLYLQMNSLRAEDTAVYYCARSLARTTAMDYWGEGTLVTVSSASTKGPSVFPLAPSSKSTSGGTAALGCLVKDYFPEPVTVSWNSGALTSGVHTFPAVLQSSGLYSLSSVVTVPSSSLGTQTYICNVNHKPSNTKVDKKVEPKSCDKTHTCPPCPAPDLLGGDSVFLFPPKPKDTLMISRTPEVTCVVVDVSHEDPEVKFNWYVDGVEVHNAKTKPREEQYNSTYRVVSVLTVLHQDWLNGKEYKCKVSNDALPKPIEKTISKAKGQPREPQVYTLPPSRDELTKNQVSLTCLVKGFYPSDIAVEWESNGQPENNYKTTPPVLDSDGSFFLYSKLTVDKSRWQQGNVFSCSVMHEALHNHYTQESLSLSP light: not shown
104 | 224 | – | IL6R-BP130/IL6R-L (antibody, human IgG1, kappa, name in EU numbering) heavy: QVQLQESGPGLVKPSETLSLTCAVSGHSISHDHAWSWVRQPPGEGLEWIGFISYSGITNYNPSLQGRVTISRDNSKNTLYLQMNSLRAEDTAVYYCARSLARTTAMDYWGEGTLVTVSSASTKGPSVFPLAPSSKSTSGGTAALGCLVKDYFPEPVTVSWNSGALTSGVHTFPAVLQSSGLYSLSSVVTVPSSSLGTQTYICNVNHKPSNTKVDKKVEPKSCDKTHTCPPCPAPDLLGGDSVFLFPPKPKDTLMISRTPEVTCVVVDVSHEDPEVKFNWYVDGVEVHNAKTKPREEQYNSTYRVVSVLTVLHQDWLNGKEYKCKMSNKALPKPIEKTISKAKGQPREPQVYTLPPSRDELTKNQVSLTCLVKGFYPSDIAVEWESNGQPENNYKTTPPVLDSDGSFFLYSKLTVDKSRWQQGNVFSCSVMHEALHNHYTQESLSLSP light: not shown
34 | 548 | 178 | IL6R-BP152/IL6R-L (antibody, human IgG1, kappa, name in EU numbering) heavy: QVQLQESGPGLVKPSETLSLTCAVSGHSISHDHAWSWVRQPPGEGLEWIGFISYSGITNYNPSLQGRVTISRDNSKNTLYLQMNSLRAEDTAVYYCARSLARTTAMDYWGEGTLVTVSSASTKGPSVFPLAPSSKSTSGGTAALGCLVKDYFPEPVTVSWNSGALTSGVHTFPAVLQSSGLYSLSSVVTVPSSSLGTQTYICNVNHKPSNTKVDKKVEPKSCDKTHTCPPCPAPDYLGDDSVFLFPPKPKDTLMISRTPEVTCVVVDVSHEDPEVKFNWYVDGVEVHNAKTKPREEQDNSTYRVVSVLTVLHQDWLNGKEYKCKVSNAALPRPIEKTISKAKGQPREPQVYTLPPSRDELTKNQVSLTCLVKGFYPSDIAVEWESNGQPENNYKTTPPVLDSDGSFFLYSKLTVDKSRWQQGNVFSCSVMHEALHNHYTQESLSLSP light: not shown
– | 259 | 179 | IL6R-BP178/IL6R-L (antibody, human IgG1, kappa, name in EU numbering) heavy: QVQLQESGPGLVKPSETLSLTCAVSGHSISHDHAWSWVRQPPGEGLEWIGFISYSGITNYNPSLQGRVTISRDNSKNTLYLQMNSLRAEDTAVYYCARSLARTTAMDYWGEGTLVTVSSASTKGPSVFPLAPSSKSTSGGTAALGCLVKDYFPEPVTVSWNSGALTSGVHTFPAVLQSSGLYSLSSVVTVPSSSLGTQTYICNVNHKPSNTKVDKKVEPKSCDKTHTCPPCPAPDLLGDDSVFLFPPKPKDTLMISRTPEVTCVVVDVSHEDGEVKFNWYVDGVEVHNAKTKPREEQYNSTYRVVSVLTVLHQDWLNGKEYKCKVSNKALPKPIEKTISKAKGQPREPQVYTLPPSRDELTKNQVSLTCLVKGFYPSDIAVEWESNGQPENNYKTTPPVLDSDGSFFLYSKLTVDKSRWQQGNVFSCSVMHEALHNHYTQESLSLSP light: not shown
– | 203 | 156 | IL6R-BP146/IL6R-L (antibody, human IgG1, kappa, name in EU numbering) heavy: QVQLQESGPGLVKPSETLSLTCAVSGHSISHDHAWSWVRQPPGEGLEWIGFISYSGITNYNPSLQGRVTISRDNSKNTLYLQMNSLRAEDTAVYYCARSLARTTAMDYWGEGTLVTVSSASTKGPSVFPLAPSSKSTSGGTAALGCLVKDYFPEPVTVSWNSGALTSGVHTFPAVLQSSGLYSLSSVVTVPSSSLGTQTYICNVNHKPSNTKVDKKVEPKSCDKTHTCPPCPAPEYLGDDSVFLFPPKPKDTLMISRTPEVTCVVVDVSHEDPEVKFNWYVDGVEVHNAKTKPREEQYNSTYRVVSVLTVLHQDWLNGKEYKCKVSNAALPAPIEKTISKAKGQPREPQVYTLPPSRDELTKNQVSLTCLVKGFYPSDIAVEWESNGQPENNYKTTPPVLDSDGSFFLYSKLTVDKSRWQQGNVFSCSVMHEALHNHYTQESLSLSP light: not shown
91 | 130 | 150 | IL6R-BP132/IL6R-L (antibody, human IgG1, kappa, name in EU numbering) heavy: QVQLQESGPGLVKPSETLSLTCAVSGHSISHDHAWSWVRQPPGEGLEWIGFISYSGITNYNPSLQGRVTISRDNSKNTLYLQMNSLRAEDTAVYYCARSLARTTAMDYWGEGTLVTVSSASTKGPSVFPLAPSSKSTSGGTAALGCLVKDYFPEPVTVSWNSGALTSGVHTFPAVLQSSGLYSLSSVVTVPSSSLGTQTYICNVNHKPSNTKVDKKVEPKSCDKTHTCPPCPAPDLLGGDSVFLFPPKPKDTLMISRTPEVTCVVVDVSHEDPEVKFNWYVDGVEVHNAKTKPREEQYNSTYRVVSVLTVLHQDWLNGKEYKCKVSNAALPKPIEKTISKAKGQPREPQVYTLPPSRDELTKNQVSLTCLVKGFYPSDIAVEWESNGQPENNYKTTPPVLDSDGSFFLYSKLTVDKSRWQQGNVFSCSVMHEALHNHYTQESLSLSP light: not shown

— patent US20150299296A1 (Chugai, published 2015)
